Measured values published in patent publication US20140134169A1, “Methods of Treating Ovarian Cancer with Dll4 Antagonists” (Regeneron Pharmaceuticals, Inc., priority 2012, published 2014).

Columns and labels:
human HCT116 tumor cells = test: Growth of human HCT116 tumors in humanized Dll4 SCID mice (irinotecan study); assay type: in vivo; details: REGN421 2 mg/kg sc (6 mg/kg total)
Procedure: Each mouse was implanted subcutaneously (sc) with 5×10^6 human HCT116 tumor cells. […] The mice were then treated with hFc, REGN421, irinotecan or combination of REGN421 and irinotecan. A total of 30 mice were divided into 6 groups (n=5 per cohort). The first group was treated sc with hFc at 2 mg/kg; the second group was treated sc with REGN421 at 2 mg/kg; the third and fourth groups were treated ip with irinotecan at 7.5 and 25 mg/kg, respectively; the fifth group was treated sc with REGN421 at 2 mg/kg and ip with irinotecan at 7.5 mg/kg; and the sixth group was treated sc with REGN421 at 2 mg/kg and ip with irinotecan at 25 mg/kg. REGN421 was administered every 3-4 days starting on day 15 and mice received three doses total. Irinotecan was administered every 3-4 days starting on day 15 and mice received three doses total.
To assess the effects of REGN421 and irinotecan as single agents or in combination treatments, the changes in tumor size (volume) are measured, starting three days before the initial REGN421 treatment, and then on the day of each agent treatment (days 15, 19, 22) and thereafter every 3-4 days until tumors reach ˜600 mm^3 in size. In vivo tumor size is calculated using the formula (length×width^2)/2.

[1] = system: Hey1 gene expression in Colo205 human colorectal tumor cells; test: Hey1 gene expression in Colo205 tumors in humanized Dll4 SCID mice (microarray); assay type: in vivo
Procedure: The effect of anti-hDll4 antibody on differential gene expression in tumors was studied in humanized Dll4 SCID mice implanted with human Colo205 colorectal tumor cells. Briefly, Male and female humanized Dll4 SCID mice were subcutaneously implanted with 2×10^6 Colo205 cells per mouse. When the tumors reached ˜150 mm^3, mice (4 animals per group) were treated with a single dose of REGN421 at 0.5, 5 or 15 mg/kg, or of hFc control at 15 mg/kg. The tumors were excised at 5 hrs, 10 hrs, 24 hrs, 72 hrs and 7 days after the treatment and stored in RNA later stabilization reagent (Qiagen). Tumor RNA was purified using the RNeasy® Midi Kit (Qiagen). Tissue was homogenized in lysis buffer containing […] in a mixer mill, loaded onto the columns and unbound contaminants washed through. DNase I digestion was performed on the column and RNA was eluted in RNase-free water. Cyanine 3 (Cy3)-CTP was incorporated into amplified cRNA from 500 ng of total RNA using the Quick Amp™ RNA Amplification Kit (Agilent Technologies). Cy3-labeled cRNA from each sample was then hybridized to a custom array covering both the mouse and human transcriptome. The hybridization and wash of the arrays were performed according to the manufacture's protocol and arrays were scanned on an Agilent Microarray scanner. The data were extracted from scanned array images using the Agilent Feature Extraction Software 9.5. […]

[2] = Phase I pharmacokinetics, single 30-min IV infusion, ELISA; assay type: in vivo, human
Procedure: REGN421 is currently being studied in a first-in-human trial. The primary objective of the study is to determine the recommended dose of REGN421 for future efficacy trials. The secondary objectives are to characterize the drug safety profile, its pharmacokinetics, immunogenicity, and pharmacodynamics, as well as preliminary evidence of efficacy. In this study, anti-hDll4 antibody REGN421 is administered intravenously every 3 weeks to patients whose cancer has progressed on conventional therapy. The study design follows standard methodology for dose escalation and definition of dose-limiting toxicity. To date, 7 patients have been treated at 0.25 mg/kg/dose every three weeks, and 6 patients have been treated at 0.50 mg/kg/dose every three weeks. For the pharmacokinetic study, blood samples were taken at pre-dose, 0 hour, and post-dose 1, 2, 4 and 8 hours on Day 1, followed by Days 2, 3, 4, 8 and 15 of Cycle 1; and pre-dose, 0 hour on Day 1 of Cycles 2, and post-treatment follow-up on Days 15, 30 and 60. Plasma/serum levels of REGN421 in the samples are measured by ELISA with an upper limit of quantification of 2.5 μg/mL and a lower limit of quantification of 0.039 μg/mL in the undiluted serum sample. The study is ongoing with the intent to administer higher doses, defined in the protocol as 1, 2, 4, and 7 mg/kg/dose.
The currently available data showing plasma pharmacokinetic parameters following single 30-min. Cmax: Maximum serum concentration of the drug; Tlast: Time to the last quantifiable concentration of the drug; Clast: Last quantifiable concentration of the drug; AUClast: Area under curve up to the last concentration of the drug; AUC: Total area under the curve (i.e., drug exposure); t1/2Z: Terminal half life; Vss: Volume of distribution at steady state; CL: Drug clearance rate. Values are: mean, (CV %), and [range] (a: median [range]).

[3] = system: Hey-1 transcript (Dll4-notch signaling pathway); test: Hey-1 transcript in Phase I patient samples (microarray); assay type: in vivo, human; details: all samples, 0.25 and 0.5 mg/kg
Procedure: The pharmacodynamic effect of REGN421 on the Dll4-notch signaling pathway has been analyzed using microarray technology on the patient serum samples collected prior to as well as 24 hours following REGN421 administration.

B1: REGN421 (antibody, V domains shown)
VH: QVQLVESGGGVVQPGRSLRLSCAASGFTFSSYGMHWVRQAPGKGLEWVSFLWYDGTNKNYVESVKGRFTISRDNSKNMLYLEMNSLRAEDTAVYYCARDHDFRSGYEGWFDPWGQGTLVTVSS
VL: EIVLTQSPATLSLSPGERATLSCRASQSVSSYLAWYQQKPGQAPRLLIYDASNRATGIPARFSGSGSGTDFTLTISSLEPEDFAVYYCQHRSNWPPTFGGGTKVEIK
Human HCT116 tumor cells
  TGD: 9 days
  TGI(%) at Day 39: 81.3%
[1]; single dose 0.5 mg/kg (lowest dose)
  Hey1 mRNA levels compared to control hFc-treated mice: No significant decrease
[1]; single dose REGN421, starting at 10 hours, most significantly at 72 hours and 7 days post-treatment
  Hey1 mRNA levels compared to control hFc-treated mice: decreased
[2]; 0.25 mg/kg IV, n = 7, mean
  AUC: 489 µg·h/mL
  AUClast: 452 µg·h/mL
  CL: 0.0473 L/h
  Cmax: 6.27 µg/mL
  T1/2Z: 47.1 h
  Vss: 2.85 L
[2]; 0.25 mg/kg IV, n = 7, median
  Tlast: 170 h
[2]; 0.5 mg/kg IV, n = 2, mean
  AUC: 963 µg·h/mL
  AUClast: 759 µg·h/mL
  CL: 0.0355 L/h
  Clast: 2.24 µg/mL
  Cmax: 9.88 µg/mL
  T1/2Z: 92.3 h
  Vss: 3.64 L
[2]; 0.5 mg/kg IV, n = 2, median
  Tlast: 203 h
[3]
  expression of the Hey-1 gene compared to pre-treatment samples: reduced
